Values joined by “and” are separate entries in the source; they are usually repeats but may differ in a detail not shown here. Identical values can stand only once.
B1: translin variant Nt-1 (I6A/F7A) (natural protein, human, UniProt Q15631 1-228, looked up)
chain: MSVSEAAVELQGFLAAEQDIREEIRKVVQSLEQTAREILTLLQGVHQGAGFQDIPKRCLKAREHFGTVKTHLTSLKTKFPAEQYYRFHEHWRFVLQRLVFLAAFVVYLETETLVTREAVTEILGIEPDREKGFHLDVEDYLSGVLILASELSRLSVNSVTAGDYSRPLHISTFINELDSGFRLLNLKNDSLRKRYDGLKYDVKKVEEVVYDLSIRGFNKETAAACVEK
notes: translin, human; mutant of the pQE-9 translin plasmid made by QuikChange site-directed mutagenesis; Same construct as m1 with the stated substitutions; also called N-terminal 1; source: E. coli, purified
B2: (GU)12 (ssRNA)
RNA: GUGUGUGUGUGUGUGUGUGUGUGU

Experiments:
[1] = biological target: the molecule itself; assay: glycerol gradient centrifugation; 10 ml linear 20-40% (v/v) glycerol gradient, 10 mM Tris-HCl pH 8.0, 100 mM NaCl, 1 mM EDTA, 2 mM DTT; SW-41 rotor, 38 000 rpm, 24 h, 8°C; fractions by SDS-PAGE and Coomassie; S value and molecular weight by comparison with protein markers; major oligomeric state
translin (wild type) = translin (wild type) (Homo sapiens, UniProt Q15631 1-228); assay: SAXS; translin octamer:RNA 1:1.5; Rg 47.2 vs 48.4 A free; SAXS: 10 mM Tris-HCl pH 8.0, 100 mM NaCl, 0.1 mM EDTA, 1 mM DTT, 5% glycerol; complex incubated 20 min at 25 C, measured at 10 C; conditions: protein: recombinant; tags: N-terminal His6 (pQE-9); chain copies: 8; single strand

| Binder | stoichiometry N [1] | binding result (translin (wild type)) |
| --- | --- | --- |
| B1 | 4 subunits and 3.9 subunits |  |
| B2 |  | binds |

Reference: article PMC3834833 (Nucleic Acids Research, 2013)
